Experimental data taken from patent US20240245805A1 (Orna Therapeutics, Inc., priority 2020, published 2024).

B1: Hepatovirus H2 (nucleic acid, listed as Hepatovirus sp.)
DNA: GTCATGTTTCTCTTTAAGAACACTCAATTTTGGCCATAAGTGAGACTCTTGTCGAACCTTTCATGTCAGGACCATGTTAGGGCCATTATCCTTTTCCCTGGGGCATTCTTCTTGCCCCTGTTTCATCTTTCTATCATCTTTCTTCCGGGCTCTCACAATGCCAATGGAGCGACCGATGCGCACGTCGGGGTTAACCCATGGATTAGCCATGGGCTGTAGCTGCTAAAAGTTGTGACTCCTGAAGCATACTATCAATGGTAGTAGATGTAACTGAAACACTGAAGCTTCTCTGATCTTGAAAGAAGGGTAGGCTACGGGTGAAACCCTTCAGGTTAATACTCATATTGAGAGATACCTTTGGTAGGTTAACGTTGGCGGATAATGTTGAGTTTAACGACAATAAACATTCAACGCCTGTGGGCGAACCTCACCAATTTCATGCTTTGAAGTGAATGTGCGTAGGGTCTCTATCGGAGATGCTATGTGGATGGTGCCCTCCCTGGAAACAGGTTGTAGGGGTACTCAGGTGCACTTAGGTTTCCACATTTTAAAGATTTTTC
B2: Hepatovirus D (nucleic acid)
DNA: CTTTGGATGCCCATAGTGCGGGGGTATAAATACCGCACTCCCTTTAGCTGTTCCGAGGGTATCGGAACCTATATGTTTGTTTTCTGTCTGTCTGTCAGCTTTATGTGTGCTCGTCCCCTTTAGGGCACTCATTTCAGCTTGCTTTCATTCTTTTCTTCCCCGGTTCTCACCTTACCGGAGGCACTGGCCGTTGCGCCCGGCGGGGTCAACCTAGTGATTAGCACTAGGCTGTAGGTGTCTAAAGTGGTGACATTAAGACTTGGTAACTGATTTCAGCACTGTTAACTGATGTTGGGGATGACTTGATTGATCTTCTGGAAGGGGTAGGCTACGGGTGAAACCCCTTATCTTAATACCACTATGTAGAGATAGATTCAGTAGGTTAAGGGCAGTGGATAAGGTTGAGTTCATTTTGGACAATAAACCTTCAACACTGGTGGACCCAATCTCACTGACCAGATGCTTTCTTGACTGATCCTTCAGAGGGGTGATTCTTCTGAATAGGTTGCCTTGACACTGATGCCTGAGACCCATTGGGTCGGGCCTTAAATCATGGAACTCCACTGGACTTTCATGGCCTAGCTTCTGCCTTAGACAGACTCTGGGGCCCCACGACCCTCTGGGCCCTTCGGGGTACTCAGGGGCATTTAGGTTTTTCCACAATTAAAAGAGTTA
modifications: Hepatovirus D
B3: Fipivirus A (nucleic acid)
chain: TGCGGGTAAACTCCCGCATGTGTGAATGAGGCGATGTCCCAGGAACTAACTGCCGATCCTGGTTTTAACTACGATCCGTATTTGTTACTAATGCGATATCCCCCCATTGTTTGCCTCCATGTTGTTTTCAACGCTTTTGGCCTTGAGTGTTATCAAGTGTTTTAGCGACATAGTGGGAAGCTACGGCTGCGTCCCCATTTTTGAGTGGCGACCCAGTTTTAGTGGCCACTCTGTCCCTGAACTGCGCTATAATGTGAATTTATGTTCACAAAAACGGACTGATGTAACTGTTAATGACTAAGGAATAGTACCTCACTGAAGTATCAAGACCCCGTTCGAGCGGTGTACATATATGGATGGAAACCTTGTCTGAGTCATCTCGAATACTAATCAATGAGGGATGTCGAGTAAGCATATCATGAACCACATAGAATAGTGGGGTTTCGGGGTTAGAGGCTCTCTGCAGCAATGTATCTCTAACACCATGGCCGAAATGAGAGATAGAGACCACGATGTTTGTGTGTAAGTAATGATGTGTGGAAAGAAAATTCTGAATGTTGGTATGATATCAGTCTAAGGGGAGTGGCTCACCTAAGAGCTACCCAAACATTTCACAGCAGACAACATAACGTACTGAGAGTAGTTGGAAGGTTCCAGAAATCAGT
modifications: lipid formulation; Fipivirus A
B4: Hepatovirus C (nucleic acid)
DNA: TTCAAAAGCCCCAGCGGGGTTTCATTACCCCGCTGTGGCTTTTGGACTTCCCTAGGATGGGGAAGTAAATTACCATCCTCGCGTTTGCCGTGCGTTAACGGCTACTTTTCTTCTAGCTGTAGAAGTAAAATTCAGCATGTTTTATGTTTGTTTGTCTTGTTTGTTATATACATTTTTACACTCCTACAAATGCACATGAAGAACAGTTTGTAGAGATTAACAAACGCTTAGCTGAACCTAGGTGGTGAATCTAGTAGTAAGATAAGTAGAGGAAGCTATACCTTAAGTTGGTTGGGCCCTCGTGTTTGCTCTATAAACAAAACCAAGTGAGTAGAGTGGATGAACAGTACTAAATCCCTGAGTACAGGGAACCTCACAGGTGTGATACACTTATGTCTATGTGACCTGGTTGGAGGTTGGGCGTGCCCTATGATACTGGAGTGGGAGATCTTTTGGGGAACCCACGTTTTCACACTGCCTGATAGGGTCTTGCCGAGAGACTCACTTGTTTCGGCTGTACTTGTAAC
modifications: Hepatovirus C
B5: Hepatovirus G1 (nucleic acid, listed as Hepatovirus sp.)
DNA: GCAAGGGGTGGTTTTAACCTTGCACGCGTTTACCGTGCGTTAACGGTTTTCCATGTTTGTATGTCTTGTTTGTATTATGTGTTTTGTAAATATTAATTCCTGCAGGTTCAGGGTTCTTTAATCATGTTGGGCTGTACCCACACTCAACTTTTGGCCATAAGTGAGTTTCTTAACGAACCTTTTAACACAGGATGTTATTAGGGCCCAATATTTTCCCTGAGGCCTTCTTTGGCCTCTATTTTTTCCCCTTTTCTATCTCCTTGTATTCCGGGCTCACGTGATGCCAATGGACTGACCCATGCGCCCGTGGGGGTTAACTACTGGAGTAGCCAGTAGCTGTAGGTGCTAAAAGTCACGTACGTGTAAGACTGGACGAGACCTCTCAGCTATAACTGAAAGTAGTAAGTATGTCTGAACTTCTTGAAGGGGTAGGCTACGGGTGAAACCCCTTAGGTTAATACTCATATTGAGAGATACCTCTGATAGGTGAAGGTTTCCGGTAGAGGTGAGTTTAACGACAAAGCCTCTCAACGGATGTGGGCCCACCTCATCAGCAAGATGCTTTCATACCCAATACCGTAGGGGCTGGGTTGTTGAGTTCAGTCCCAAGCGTCCCTCCCGCAAGGTTGTAGGGGTACTCAGGGGCATTTAGGTTTCCACAATTAAACAAATACA
B6: Hepatovirus I (nucleic acid)
DNA: GGCTGCCTGTGTCTCAGGGGTAAGTACTGGGGCCGCGTTGACCGTGCGGTACGGTTATGCTTTTAGATTAGGATGTCCGTCTGTCCGGCACTCTCTTTTGCTTAAAATGGCCTTAAATCCATGGGAGGCGTAACCATGGGCCCTTTGTTACCTAGACATGATTGCATTGGGGGCCGTCCTTGGGGCTTAGGCCCCAGCCATTTCTCTTGACTCGTCTAAGAGTTTACTTCATCCTTTTCTTTACTTTATTTTCCAGGCTCTCAGCATGCCGACGGCTCTGACCACTGCGCCCGGTGGGGTTAACTGCATGATTAGCATGCAGCTGTAGGAGTTAAAAGTGCTGACAGGCCAATTCTGACGTAAGTCCACTCTATATTAACTTGATCAAGTAAGGTTGATTGATCTTTGTGAGAGGGTAGGCTACGGGTGAAACCCTCTAGGTTAATACTCATATTGAGAGATACCTCCAGAAGGTGAAGGTTGGCGGATATTGGTGAGTTCTTTTAGGACAAAAACCTTTCAACGCCTGTGGGCCCACCTCACTGGCACAATGCTTTCATCCCCAATTGTGATGGGTAGTTTGGACTGAAATCAGGAGTAACCTGCCCTACGAGTTTAGGGGTAGTTCAGGGGTATTTAGGCTTCCACATTTGATAGAGTTTATGAGAGTGAGCC
modifications: Hepatovirus I

System: HEK293 cells
Type: cell-based, human
Conditions: circular RNA encoding Gluc with the listed IRES (UTR truncated to 675 nt) transfected into HEK293 cells; supernatant after 24 hours

Molecule | Expression (luminescence from secreted Gluc protein)
B1 | 1.08E+05
B2 | 1.47E+06
B3 | 2.69E+05
B4 | 5.08E+05
B5 | 1.41E+05
B6 | 8.79E+05
